# Test results: US9580733B2, “Methods of producing 6-carbon chemicals via methyl-ester shielded carbon chain elongation” (INVISTA North America S.á r.l., priority 2012, dated 2017)
# How the values were obtained:
# Type in all cases: biochemical
# [1] = ω-transaminase activity assay, reverse direction, 6-aminohexanoate to adipate semialdehyde; conditions: cell free extract, 10 mM 6-aminohexanoate, 10 mM pyruvate, 25° C., 24 h, vs empty vector control, FIG. 15
# Description: (§1) A nucleotide sequence encoding a His-tag was added to the genes from Chromobacterium violaceum, Pseudomonas aeruginosa, Pseudomonas syringae, Rhodobacter sphaeroides, and Vibrio fluvialis encoding the ω-transaminases of SEQ ID NOs: 7, 8, 9, 10 and 12, respectively (see FIGS. 7E and 7F) such that N-terminal HIS tagged ω-transaminases could be produced. Each of the resulting modified genes was cloned into a pET21a expression vector under control of the T7 promoter and each expression vector was transformed into a BL21[DE3] E. coli host. The resulting recombinant E. coli strains were cultivated at 37° C. in a 250 mL shake flask culture containing 50 mL LB media and antibiotic selection pressure, with shaking at 230 rpm. Each culture was induced overnight at 16° C. using 1 mM IPTG.
# (§2) The pellet from each induced shake flask culture was harvested via centrifugation. Each pellet was resuspended and lysed via sonication. The cell debris was separated from the supernatant via centrifugation and the cell free extract was used immediately in enzyme activity assays.
# Enzyme activity assays in the reverse direction (i.e., 6-aminohexanoate to adipate semialdehyde) were performed in a buffer composed of a final concentration of 50 mM HEPES buffer (pH=7.5), 10 mM 6-aminohexanoate, 10 mM pyruvate and 100 μM pyridoxyl 5′ phosphate. Each enzyme activity assay reaction was initiated by adding cell free extract of the ω-transaminase gene product or the empty vector control to the assay buffer containing the 6-aminohexanoate and incubated at 25° C. for 24 h, with shaking at 250 rpm. The formation of L-alanine from pyruvate was quantified via RP-HPLC.
# [2] = Carboxylate reductase activity assay, adipate to adipate semialdehyde; conditions: enhanced by gene product of sfp, 2 mM adipate, room temperature, 20 min, vs empty vector control, FIG. 10
# Description: A nucleotide sequence encoding a HIS-tag was added to the genes from Segniliparus rugosus and Segniliparus rotundus that encode the carboxylate reductases of SEQ ID NOs: 5 and 7, respectively (see FIGS. 7C and 7E), such that N-terminal HIS tagged carboxylate reductases could be produced. Each of the modified genes was cloned into a pET Duet expression vector along with a sfp gene encoding a HIS-tagged phosphopantetheine transferase from Bacillus subtilis, both under the T7 promoter. Each expression vector was transformed into a BL21[DE3] E. coli host and the resulting recombinant E. coli strains were cultivated at 37° C. in a 250 mL shake flask culture containing 50 mL LB media and antibiotic selection pressure, with shaking at 230 rpm. Each culture was induced overnight at 37° C. using an auto-induction media.
# The pellet from each induced shake flask culture was harvested via centrifugation. Each pellet was resuspended and lysed via sonication, and the cell debris was separated from the supernatant via centrifugation. […]
# Enzyme activity assays (i.e., from adipate to adipate semialdehyde) were performed in triplicate in a buffer composed of a final concentration of 50 mM HEPES buffer (pH=7.5), 2 mM adipate, 10 mM MgCl2, 1 mM ATP and 1 mM NADPH. […] The consumption of NADPH was monitored by absorbance at 340 nm.
# [3] = ω-transaminase activity assay, forward direction, adipate semialdehyde to 6-aminohexanoate; conditions: cell free extract, 10 mM adipate semialdehyde, 10 mM L-alanine, 25° C., 4 h, vs empty vector control, FIG. 16
# Description: as §1, §2
# Enzyme activity in the forward direction (i.e., adipate semialdehyde to 6-aminohexanoate) was confirmed for the transaminases of SEQ ID NO 7, SEQ ID NO 8, SEQ ID NO 9, SEQ ID NO 10 and SEQ ID NO 12. Enzyme activity assays were performed in a buffer composed of a final concentration of 50 mM HEPES buffer (pH=7.5), 10 mM adipate semialdehyde, 10 mM L-alanine and 100 μM pyridoxyl 5′ phosphate. Each enzyme activity assay reaction was initiated by adding a cell free extract of the ω-transaminase gene product or the empty vector control to the assay buffer containing the adipate semialdehyde and incubated at 25° C. for 4 h, with shaking at 250 rpm. The formation of pyruvate was quantified via RP-HPLC.
# [4] = Carboxylate reductase activity assay, adipate semialdehyde to hexanedial; conditions: enhanced by gene product of sfp, 2 mM adipate semialdehyde, room temperature, 20 min, vs empty vector control, FIG. 13
# Description: The N-terminal His-tagged carboxylate reductase of SEQ ID NO 7 (see Example 4 and FIG. 7E) was assayed using adipate semialdehyde as substrate. The enzyme activity assay was performed in triplicate in a buffer composed of a final concentration of 50 mM HEPES buffer (pH=7.5), 2 mM adipate semialdehyde, 10 mM MgCl2, 1 mM ATP and 1 mM NADPH. The enzyme activity assay reaction was initiated by adding purified carboxylate reductase and phosphopantetheine transferase or the empty vector control to the assay buffer containing the adipate semialdehyde and then incubated at room temperature for 20 min. The consumption of NADPH was monitored by absorbance at 340 nm.
# [5] = Pimeloyl-[acp] methyl ester methylesterase activity assay, adipyl-CoA methyl ester to adipyl-CoA; conditions: 10 μM enzyme, 5 mM adipyl-CoA methyl ester, pH 7.0, 30° C., 1 h, FIG. 20
# Description: A sequence encoding an C-terminal His-tag was added to the gene from Escherichia coli encoding the pimeloyl-[acp] methyl ester methylesterase of SEQ ID NO: 17 (see FIG. 7G) such that C-terminal HIS tagged pimeloyl-[acp] methyl ester methylesterase could be produced. The resulting modified gene was cloned into a pET28b+ expression vector under control of the T7 promoter and the expression vector was transformed into a BL21[DE3] E. coli host. The resulting recombinant E. coli strain was cultivated at 37° C. in a 500 mL shake flask culture containing 100 mL LB media and antibiotic selection pressure, with shaking at 230 rpm. Each culture was induced overnight at 18° C. using 0.3 mM IPTG.
# The pellet from each induced shake flask culture was harvested via centrifugation. Each pellet was resuspended and lysed via sonication. The cell debris was separated from the supernatant via centrifugation. The pimeloyl-[acp] methyl ester methylesterase was purified from the supernatant using Ni-affinity chromatography, buffer exchanged and concentrated into 20 mM HEPES buffer (pH=7.5) via ultrafiltration and stored at 4° C.
# Enzyme activity assays converting adipyl-CoA methyl ester to adipyl-CoA were performed in triplicate in a buffer composed of a final concentration of 25 mM Tris.HCl buffer (pH=7.0) and 5 [mM] adipyl-CoA methyl ester. […] The formation of adipyl-CoA was quantified via LC-MS.
"ω-transaminase activity for converting 6-aminohexanoate to adipate semialdehyde (formation of L-alanine from pyruvate, RP-HPLC) [1]",Molecule,"carboxylate reductase activity for converting adipate to adipate semialdehyde (consumption of NADPH, absorbance at 340 nm) [2]","ω-transaminase activity for converting adipate semialdehyde to 6-aminohexanoate (formation of pyruvate, RP-HPLC) [3]","carboxylate reductase activity for converting adipate semialdehyde to hexanedial (consumption of NADPH, absorbance at 340 nm) [4]",conversion of adipyl-CoA methyl ester to adipyl-CoA by pimeloyl-[acp] methyl ester methylesterase (LC-MS) [5]
accepted 6-aminohexanote as substrate,"SEQ ID NO 7: Segniliparus rotundus carboxylate reductase (Genbank Accession No. ADG98140.1); in Example 2 the same label is printed for a ω-transaminase (protein, listed as Segniliparus rotundus) MTQSHTQGPQASAAHSRLARRAAELLATDPQAAATLPDPEVVRQATRPGLRLAERVDAILSGYADRPALGQRSFQTVKDPITGRSSVELLPTFDTITYRELRERATAIASDLAHHPQAPAKPGDFLASIGFISVDYVAIDIAGVFAGLTAVPLQTGATLATLTAITAETAPTLFAASIEHLPTAVDAVLATPSVRRLLVFDYRAGSDEDREAVEAAKRKIADAGSSVLVDVLDEVIARGKSAPKAPLPPATDAGDDSLSLLIYTSGSTGTPKGAMYPERNVAHFWGGVWAAAFDEDAAPPVPAINITFLPLSHVASRLSLMPTLARGGLMHFVAKSDLSTLFEDLKLARPTNLFLVPRVVEMLYQHYQSELDRRGVQDGTREAEAVKDDLRTGLLGGRILTAGFGSAPLSAELAGFIESLLQIHLVDGYGSTEAGPVWRDGYLVKPPVTDYKLIDVPELGYFSTDSPHPRGELAIKTQTILPGYYKRPETTAEVFDEDGFYLTGDVVAQIGPEQFAYVDRRKNVLKLSQGEFVTLAKLEAAYSSSPLVRQLFVYGSSERSYLLAVIVPTPDALKKFGVGEAAKAALGESLQKIARDEGLQSYEVPRDFIIETDPFTVENGLLSDARKSLRPKLKEHYGERLEAMYKELADGQANELRDIRRGVQQRPTLETVRRAAAAMLGASAAEIKPDAHFTDLGGDSLSALTFSNFLHDLFEVDVPVGVIVSAANTLGSVAEHIDAQLAGGRARPTFATVHGKGSTTIKASDLTLDKFIDEQTLEAAKHLPKPADPPRTVLLTGANGWLGRFLALEWLERLAPAGGKLITIVRGKDAAQAKARLDAAYESGDPKLAGHYQDLAATTLEVLAGDFSEPRLGLDEATWNRLADEVDFISHPGALVNHVLPYNQLFGPNVAGVAEIIKLAITTRIKPVTYLSTVAVAAGVEPSALDEDGDIRTVSAERSVDEGYANGYGNSKWGGEVLLREAHDRTGLPVRVFRSDMILAHQKYTGQVNATDQFTRLVQSLLATGLAPKSFYELDAQGNRQRAHYDGIPVDFTAESITTLGGDGLEGYRSYNVFNPHRDGVGLDEFVDWLIEAGHPITRIDDYDQWLSRFETSLRGLPESKRQASVLPLLHAFARPGPAVDGSPFRNTVFRTDVQKAKIGAEHDIPHLGKALVLKYADDIKQLGLL",accepted adipate as substrate,accepted adipate semialdehyde as substrate,accepted adipate semialdehyde as substrate,–
–,"SEQ ID NO. 17: Escherichia coli pimeloyl-[acp] methyl ester esterase (GenBank Accession No. AAC76437.1), C-terminal His-tagged (protein, listed as Escherichia coli, C-terminal His tag) MNNIWWQTKGQGNVHLVLLHGWGLNAEVWRCIDEELSSHFTLHLVDLPGFGRSRGFGALSLADMAEAVLQQAPDKAIWLGWSLGGLVASQIALTHPERVQALVTVASSPCFSARDEWPGIKPDVLAGFQQQLSDDFQRTVERFLALQTMGTETARQDARALKKTVLALPMPEVDVLNGGLEILKTVDLRQPLQNVSMPFLRLYGYLDGLVPRKVVPMLDKLWPHSESYIFAKAAHAPFISHPAEFCHLLVALKQRV",–,–,–,accepted adipyl-CoA methyl ester as substrate
–,"SEQ ID NO 5: Segniliparus rugosus carboxylate reductase (Genbank Accession No. EFV11917.1) (protein, listed as Segniliparus rugosus) MGDGEERAKRFFQRIGELSATDPQFAAAAPDPAVVEAVSDPSLSFTRYLDTLMRGYAERPALAHRVGAGYETISYGELWARVGAIAAAWQADGLAPGDFVATVGFTSPDYVAVDLAAARSGLVSVPLQAGASLAQLVGILEETEPKVLAASASSLEGAVACALAAPSVQRLVVFDLRGPDASESAADERRGALADAEEQLARAGRAVVVETLADLAARGEALPEAPLFEPAEGEDPLALLIYTSGSTGAPKGAMYSQRLVSQLWGRTPVVPGMPNISLHYMPLSHSYGRAVLAGALSAGGTAHFTANSDLSTLFEDIALARPTFLALVPRVCEMLFQESQRGQDVAELRERVLGGRLLVAVCGSAPLSPEMRAFMEEVLGFPLLDGYGSTEALGVMRNGIIQRPPVIDYKLVDVPELGYRTTDKPYPRGELCIRSTSLISGYYKRPEITAEVFDAQGYYKTGDVMAEIAPDHLVYVDRSKNVLKLSQGEFVAVAKLEAAYGTSPYVKQIFVYGNSERSFLLAVVVPNAEVLGARDQEEAKPLIAASLQKIAKEAGLQSYEVPRDFLIETEPFTTQNGLLSEVGKLLRPKLKARYGEALEARYDEIAHGQADELRALRDGAGQRPVVETVVRAAVAISGSEGAEVGPEANFADLGGDSLSALSLANLLHDVFEVEVPVRIIIGPTASLAGIAKHIEAERAGASAPTAASVHGAGATRIRASELTLEKFLPEDLLAAAKGLPAADQVRTVLLTGANGWLGRFLALEQLERLARSGQDGGKLICLVRGKDAAAARRRIEETLGTDPALAARFAELAEGRLEVVPGDVGEPKFGLDDAAWDRLAEEVDVIVHPAALVNHVLPYHQLFGPNVVGTAEIIRLAITAKRKPVTYLSTVAVAAGVEPSSFEEDGDIRAVVPERPLGDGYANGYGNSKWAGEVLLREAHELVGLPVAVFRSDMILAHTRYTGQLNVPDQFTRLVLSLLATGIAPKSFYQQGAAGERQRAHYDGIPVDFTAEAITTLGAEPSWFDGGAGFRSFDVFNPHHDGVGLDEFVDWLIEAGHPISRIDDHKEWFARFETAVRGLPEAQRQHSLLPLLRAYSFPHPPVDGSVYPTGKFQGAVKAAQVGSDHDVPHLGKALIVKYADDLKALGLL",accepted adipate as substrate,–,–,–
